Test: yeast display, Sf9 membrane polyspecificity reagent, FACS + sequencing; frameworks hold sequencing errors
Method in brief: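 Using colony PCR, genes from sorted yeast display clones were amplified, then sequenced on MiSeq at 2 × 250 and filtered by CDR length. The clones had been stained with 10% biotinylated, detergent-solubilized Sf9 membrane reagent for 1 hour at 4 °C and sorted by FACS into low and high (top ~1%) gates on anti-HA and streptavidin fluorescence. Polyreactivity labels come from the gate of origin.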

| Sequence | polyreactivity (PSR sort gate) |
| --- | --- |
| QVHLVESGGGLVQAGGSLRLSCAASGITFYYYAMGWYRQAPGKERELVAAIDTDGSTYYADSVKGRFTVSRDNAKNTVYLQMNILKPEDTAVYYCAAVIEYYPYSGYIYDYWGQGSQVTVSS | high polyreactivity |
| QVQLVESGGGLVQAGGSLRLSCAASGSIFAVYAMGWYRQAPGKERVLVAASSTDYADSVKGRFTISRDNAKNTVYLQMNSLKTEDTAVYYCAKVGFGIPGGFYYWGQGTQVTVSS | low polyreactivity |
| QVQLVDSGGGLVQAGGSLRLSCAASGRIFHVYAMGWYRKAPGKERELLADITWSGGSTYYADSVKGRFTISRDNAKNTVYLQMNSLKPEDTAVYYCAAAYYGYARWRGPRKMDYWGQGTQVTVSS | high polyreactivity |
| QVQLVESGGGLVQAGGSLRLSCAACGSIFLSNSMGWYRQAPGKERELVADIDWTGGDTYYADSVKGRFTISRDNAMNTVYLQMNSLKPEDTAFYYCAADYGYRNLLTEYGYWVQGTQVTVSS | low polyreactivity |
| QVKLVESGGGLVQAGGSLRLSCAASGFIFLLYDMGWYRQAPGKERELVAANTSDGTTNYADSVKGRFTISRDNAKNTVYLQMNSLKPEDTAVYYCAADDEPYVYEVTAYLGYEYWGQGTQVTVSS | high polyreactivity |
| QVQLVESGGGLVQAGGSLRLSCAASGSTLVGYVMGWYRQAPGKERELVATISRSGGSTYYADSVKGRFTISRDNAKNTVYLQMNSLKPEDTAVYYCATDLLNNVDYDYWGQGTQVTVSS | low polyreactivity |
| QVQLVESGGGLVQAGGSLRLSSAASGIFSYYAIGWYRQAPGKERELVAAISSSGGSTYYADSVKGRFTISRDNAKNTVYLQMNSLKPEDTAVYYCAVSGGTSRRYYYWGLGTQVTVSS | high polyreactivity |
| QVQLVESGVGLVQAGGSLRLSCAASGSTFYKYTMGWYRQAPGKESELVSAISRSGGRTYYADSVKGRFTISRDNAKNTVYLQMNSLKPEDTAVYYCAVVTPRYYGDTKYDYWGQGTQVTVSS | high polyreactivity |
| QVQLVESGGGLVQAGGSLRLSCAASGSTFPRNAMGWSRQAPGKERELVAAISFRGSTTYYADSVKGRFTISRDNAKNTVYLQMNSLKPEDTAVYYCAADGGRQARTYSRYYWGQGTQVTVSS | high polyreactivity |
| QVQLVESGGGLVQAGGSRRLSCAASGFIFTTYTRGWYRQATGTERELVAAIRSDGVRTYYADSVKGRFTISRDNAKNTVYLQMNSLKPEDTAVYYCNRVCAVRIGAGDYWGQGTQVTVSS | high polyreactivity |
| QVQLVESGGGLVQAGGSLRLSCAASGRTFWKYAMGWYRQAPGKERELVAAITSSGGSTYYADSVKGRFTISRDNAKNTVYLQMNSLKPEDTAVYYCAAPGWGLGYNYWGQGTQVTVSS | low polyreactivity |
| QVQLVESGGGLVQAGGSLRLSCAASGSTFSKYAMGWYRQAPWKESELVASITWSGGSTYYADSVKGRFTISRDNAKNTVYLQMNSLIPEDTAVYYCNVRTIQYNVGRWWEYDYWGQVTQVTVSS | low polyreactivity |
| QVQLVESGGGLVQAGGSLRLSCAASGRIFTAYDMGWYRQAPGKERELVAAITRSSGSTYYADSVKGRFTISRDNAKNTVYLQMNSLKGEDTAVYYCATDGEFWGYDSWGQGTQVTVSS | low polyreactivity |
| QVQLVESGGGLVQAGGSLRLSCAASGRIFPRNAMGWYRQAPGKERELVAAISSGGGGTYYADSVKGRFTISRDNAKNTVYLQMNSLKPEDTAVYYCNAAYTYVTAWYYYWGQGTQVTVSS | high polyreactivity |
| QVQLVESGGGLVQAGGSLRLSCAASGFTFEYNAMGWYRQAPGKERELVAAISRSGGSTYYADSVKGRFTISRDNAKNTVYLQMNSLIPEDTAVYYCAAEPYPLPSYGYWGQGTQVTVSS | high polyreactivity |
| QVQLVESGGGLVQAGGSLRLSCAASGRTLDRYAMGWYSPAPGKERELVAAIRWSTGSTYYADSVKGRFTISRDNAKNTVYLQMNSLKPEDTAVYYCAAELSYWWYFAMDYWGQGTQVTVSS | high polyreactivity |
| QVQLVESGGGLVQAGGSLRLSCAASGFTLALNAMGWYRQAPGKERELVAVINSGGSTNYADSVKGRFTISRDNAKNTVYLQMNSLKPEDTAVYYYWGQGTQVTESS | low polyreactivity |
| QVQLVESGGGLVQAGGSLGLSCAASGRTFFDYAMGWYRQAPGKERELVAAINWSGGRTYYADSVKGRFSISRDNAKNTVYLQMNSLKPEDTAVYDCNVYTRGRYEYWGQGTQVTVSS | low polyreactivity |
| QVQLVESGGGLVQAGGSLRLSCAASGSTFYSYAMGWYRQAPGKERELVAAITSGGSTNYADSVKGRFTISRDNAKNTVYLQMNRLKPEDTAVYYCARKYWHRSYGYDYWGQGTQVTVSS | low polyreactivity |
| QVQLVESGGGLVQAGGSLRLSCAASGFTFWRYAMGRYRQAPGKERELVAGISSGGSTNYADSVKGRFTISRDNAKNTVYLQMNSLKPEDTAVYYCAARGNYFYGIYGYWGQGTQVTVSS | low polyreactivity |
| QVQLVESGGGLVQAGGSLRLSCAASGSIFDPYAMGWYRQAPGKERELVAAITSDGSTNYADSVKGRFTISRDNAKNTVYLQMNSLKPEDTAVYYCAKHQFGRYVVLYPRGHWFDYWGQGTQVTVSS | low polyreactivity |
| QVQLVESGGGLVQAGGSLRLSCAASGRTFSIYVMGWYRQAPGKERELVAAITSGGRTYYADSVKGRFTISRDNAKNTVYLQMNSLKPEDTAGYYCAAGYWRPGQYYSRYNYWGQGTQVTVSS | high polyreactivity |

| Sequence | polyreactivity (PSR sort gate) |
| --- | --- |
| QVQLVESGGGLVQAGGSLRLSCAASGFTLRKYVMGWYRQAPGKERELVAAITSSASSTYYADTVKGRFTISRDNAKNTVYLQMNSMKPEDTAVYYCAARGRPYRGSYYWGQGTQVTVSS | high polyreactivity |
| QVHLVESGGGLVQAGGSLRLTCAASGLIFYDNMGWYRQAPGKERELVAAISSSGGSTSYADSVKGRFTISRDNAKNTVYLQMTSLKPVDTAVYYCAADSYPAYLGFVGFDYWGKGTQVTVSS | low polyreactivity |
| QVQLVESGGGLVQAGGSLRLSCAASGLTLRWYDMGWYRQAPGKERELVAAITTNGGSTYYADSVKGRFTISRDNAKNTVYLQMNSLKPEDTAVYYCAALYWRSTVGAYSTYEYDYWGQGTQVTVSS | high polyreactivity |
| QVQLVESGGGLVQAGGSLRLSCAASGRIFAFYAMGGYRQAPGKERELVAAITSGGSTKYADSVKGRFTISRDNAKNTVYLHMKSLKPEDTAVYYSAAQYRYQRYSDAMEYWGQGTQVTVSS | high polyreactivity |
| QVQLVESGGGLVQAGGSLRLSCAASGFIFSFYVMGWYRQAPGKERELVAAISTSGASTYYADSVKGRFTISRDNAKNTVYLQMNSLKPEDTAVFYCNVVYRYGGYNYWGQGTQVTVSS | high polyreactivity |
| QVQLVESGGGLVQAGGSLRLSCAASGITFWGYAMGWYRQAPGKEREFVARINWSGGRTYYAESVKGRFTISRDNAKNTVYLQMNSLKPEDTAVYYCNVVLRSVVSGDYWVQGTQVTVSS | high polyreactivity |
| QVQLVESGGGLVQAGGSLRLSCAASGFTFPYYAMGWYRQAPGKERELVADITSGGGTNYADSVKGRFTISRDNAKNTVFLQMNSLKPEDTAVYYCAADAYHQGMDYWGQGTQVTVSS | low polyreactivity |
| QVQLVESGGGLVQAGGSLRLSCAASGSIFSNNAMGWYRQAPGKERELVAAISRSGTNTYYADSVKGRFTISRDNAKNTVYLQMNSLKPEDTAVEYCAARGVYVKYYYWGQGTQVTVSS | high polyreactivity |
| QVQLVESGGGLVQAGGSLRLSCAASGRIFNKNAMGWYRQPPGKEREFVAAISRSGGRTYYADSVKGRFTISRDNAKNTVYLQMNSLKPEDPAVYFCAAEYRGVPRVVVDYDYWGQGTQVTVSS | high polyreactivity |
| QVQLVESGGGLVQAGGSLRLSCAASGSIFPGYTMGWYRQAPGKESELVAAITSSGGSTYYADSVKGRITISRDNAKNTVYLQMNSLKPEDTSVYYCAADTTNYFVPFDYWGLGTQVTVSS | low polyreactivity |
| QVQLVESGGGLVQAGGSLRLSCAASGYIFSGYAMGWYRQAPGKERELVAAISSNGGSTYYADSVKGRFTISRDNAKNTVYLQMNSLKPEDTAVYYCNRGLAARVGRGDYWGQGTQVTVSS | low polyreactivity |
| QVQLVESGGGLVQAGGSLRLSCAASGFTFGYYGMGWSRQAPGKERELVAGISSSGSRTYYADSVKGRFTISRDNAKNTVYLQMNSLKPEDTAVYYCNKYYSGKSYTGEDYWGQGTQVTVSS | high polyreactivity |
| QVQLVESGGGLVQAGGSLRLSCAASGRTFGGYAMGWYRQAPGTERELVAAIRSRGGRTYYADSVKGRFTISRDNAKKSVYLQMNSLKPEDTAVYYCATYGNKWGEDYWGQGTQVTVSS | high polyreactivity |
| QVQLVESGGGLVQAGGSLRLSCAASGRIFYYNDMGWYRQAPGKERELVAAITWTDDGTYYADSVKGRFTISRDYAKNTVYLQMNSLKPEDTAVYYFAAETFYGFEYWGQGTQVTLSS | low polyreactivity |
| QVQLVESGGGLVQAGGSLRLSCAASGSIFDSYAMGWSRQAPGKERELVAAITWSGGITFYADSVKGRFTISRDNAKNTVYLQMNSLKPEDTAVYYCATARSYVGVGGTFVGLYDYWGQCTQVTVSS | low polyreactivity |
| QVQIVESGGGLVQAGGSLRISCAASGYIFLPYAMGWYRQAPGKERELVADITSVGRTYYADSVKGRFTISRDNEKNTVYLQMNSLKPEDTAVYYCAKRHSLGYGRSRYSSGYDYWGQGTQVTVSS | high polyreactivity |
| QVQLVESGGGLVQAGGSLRLSCAASGRIFYYYAMGWSRQAPGKERELVAAITRRGGSTYYADSVKGRFTISRDNAKNTVYLQMNSLKPEDPADYYCAKPDRTGWLDGEYWGQGTQVTVSS | low polyreactivity |
| QVQLVESCGGLVQAGGSLRLSCAASGFIFRSYAMGWYRKAHGKERELVAAISRSGGSTYYADSVKGRFTISRDNAKNTVYLQMNSLKPEDTAVYYCATDGGRSTARGFGHWGQGTQVTVSS | high polyreactivity |
| QVQLVESGRGLVQAGGSLRLSCAASGRIFKAYAMGWYRQAPGKERELVAAISRSGGRTFYADSVKGRFTISRDNAKNTVYLQMNSLKPEDTAVYYCAVDVSPDSEYYYWGQGTQVTVSS | high polyreactivity |
| QVQLVESGGGLVQAGGSLRLSCAASGRTFVVYAMGWYRQAPGKERELVAVISFTGDSTFYADSVKGRFTISRDNAKNTVYLQMNSLKPEDTAVYYCAADFRRVFSKYSYYLYFDFDYWGQGSQVTVSS | low polyreactivity |
| QVQLVESGGGLVQAGGSLRLSCAASGSTFAANTMGWYRQAPGKEWELVAAITVRGGSTYYADSVKGRFTISRDNAKTTVYLQMNSLKPEDTAVYYCAAERPPYGYLVVGYVSTQYYYWGQGTQVTVSS | low polyreactivity |
